In the experiment the target is recombinant gp120 from HIV-1 strain IIIB (HIV-1 strain IIIB) (UniProt P04578).

For “griffithsin produced in Escherichia coli (^ECGRFT) (from UniProt P84801 1-121) (natural protein)”, the EC50 of whole-cell HIV neutralization assay (XTT viability of CEM-SS cells challenged with HIV-1RF), purified ^ECGRFT was 0.33 nM.

In the case of “griffithsin produced in rice endosperm (^OSGRFT), His6-tagged (from UniProt P84801 1-121) (natural protein)”, the EC50 of whole-cell HIV neutralization assay (XTT viability of CEM-SS cells challenged with HIV-1RF), purified ^OSGRFT is 0.27 nM.

Source of the values: PMC4865440.
